Consider twelve sequences from a protein production outcome set (Wang et al. 2014).

The nature of this data set: label from the status in PepcDB records.

For the sequence “MDIFLVIGIITGLLAVVVGMIVKGANVAVLLNPAAAIIIIVGTSAAVMNSFPKNEFTNIPKVFKSLMRGKSKEDPVEIINQIVDMAQETRKNGLLSLEGKIHSIDNEFLKTGLEMVVDGVDPQHIAEVLEMEIESTEERHRGGALIFTTAGGAAPTLGVLGAVVGLIGALGNLNDTEKLGHMIAGAFVATLYGIFFGYVICHPFASRLKRKSLEEINVMRIITEGILDIQSGNNPKSIEKKLIGTLSPKQRQSIQSKGE”, the protein production result was “failed”.
For the sequence “MDIFLVVLVLLTIIAISNIVNRFIPFIPVPLIQVALGILAASFPQGLHFELNTELFFVLFIAPLLFNDGKRTPRAELWNLRAPILLLALGLVFATVIVGGYTIHWMIPAIPLAAAFGLAAILSPTDVVAVSALSGRVKMPKGILRLLEGEGLMNDASGLVAFKFAIAAAVTGAFSLAQAAVSFVFISLGGLLCGVVISFLIIRFRLFLRRLGMQDVTMHMLIQILTPFVIYLAAEEIGVSGILAVVAGGITHAVEQDRLESTMIKLQIVSSSTWNIILFILNGLVFVILGTQIPDVISVIFNDTAISNMKVIGYILVITFTLMLLRFLWVLFFWNGKWFFNKDQNIYKPGLRSTLLISISGVRGAVTLAGSFSIPYFLEDGTPFPERNLILFLAAGVILCTLVIATVVLPILTEKEEEDEERNKKLLTARRKLIKTALQTIKEDMNETNKTASLAVIAEYNEKMKNLRFQQYTSSNRIKKHERKVRAQGVKAEQEALMKMLERGDIPEETANVLQERFNELEILYANPFKVGLSKTRLKRLMYWIFFGEHKKPEMSILNEAGLIRATRVKTAKAAIEYLEKHKTDEHKEVFLSVITFYKQLIFRLEHSHHELKSSAHFENQKLEVKLKAVQAIRNEIQTLFEEREISRDISHELRQYINDVEAAMLEGGE”, the protein production result is “failed”.
In the case of “MDIGFLVFGLAGLLTLVCFMPPLAGRLKLPYSVLLALVGCLLGIGVHLHGWAPPVLGDLLDTIEHFEISSETFLMVFLPVLLFETALSMNVRRLIDDIGPILMMAIVAVVVCTLVVGFAVDAVSSYGLIVCLLLGAIVATTDPAAVVGIFREVGAPKRLTTLVEGESLFNDAASIALYSVLLAALGGSGELSVGAVFNDFIFHFVGGGLAGFLMGRLACALFAWLRGFPTAEITLTLTLAYLSFFISEHYLGVSGVVATVIAGLVVGSTGRTRMSPTTFEFLSSAWGQFGFWANSLIFLFAAMLIPKLMAEADWQELLLVLVVFAATLAARAIVVFGLLPLLRVARIGAEVSNPYKSVMWWGGLRGAVSLALALAVTEQSSVPEQARQFVAVATTGFVLMTLMINGVSLRPLIRMLGLNQLSPVERTIRNQVLAAALEDLQGRTEEIAKVDHVNPEARDRIRAVFDASLTSVHDGQVGQMTLDQRVAVGLSIVARREEEMFFDILKAQIVDWRLAEGLLARAERLEDAVRAGGLAGFEAGIVADVRYSRLFRMALRTHYMFGFQGWLARELGKRFASLLTKRSVARDLMKFAREQVAPLLGEEAADRIIAAHQRRLDLIENALQALTLQYPSYSLWLQESHLGRVARELERRRYRDMLEQFLISGEVYADLMAQLKARWQHIDKHPPLDIELGSAELVKRVPLFEGLSQDSLRAICRLLKPRLALPDQHILTEGRHGQEMCIVASGAVVVHLPDHTTIELGSGEFFGELALLGEEQLVPDVTSLGYSKLLMLSARDFHALLARDEHLRERIQTVAKQRMRAIEVWKQYSQAAAAAAASTASEDSAPA”, the protein production result was “failed”.
For the sequence “MDIKELKEIATKSREKQTKIRIRCCSAAGCLSSEGETVKKNLTTAIAAAGLEEKVEVCGVGCMKFCGRGPLVAVDDRNQLYEFVTPDQVGDIVKKLQKPDAVAETGLISGDPHHPFY”, the protein production result is listed as “failed”.
For “MDILKSEILRKRQLVEDRNLLVENKKYFKRSELAKKEEEAYFERCGYKIQPKEEDQKPLTSSNPVLELELAEEKLPMTLSRQEVIRRLRERGEPIRLFGETDYDAFQRLRKIEILTPEVNKGLRNDLKAALDKIDQQYLNEIVGGQEPGEEDTQNDLKVHEENTTIEELEALGESLGKGDDHKDMDIITKFLKFLLGVWAKELNAREDYVKRSVQGKLNSATQKQTESYLRPLFRKLRKRNLPADIKESITDIIKFMLQREYVKANDAYLQMAIGNAPWPIGVTMVGIHARTGREKIFSKHVAHVLNDETQRKYIQGLKRLMTICQKHFPTDPSKCVEYNAL” the value was “failed”; for “MDIRTITSSDYEMVTSVLNEWWGGRQLKEKLPRLFFEHFQDTSFITSEHNSMTGFLIGFQSQSDPETAYIHFSGVHPDFRKMQIGKQLYDVFIETVKQRGCTRVKCVTSPVNKVSIAYHTKLGFDIEKGTKTVNGISVFANYDGPGQDRVLFVKNI”, “not failed”; for “MDISMKQSKRNLWWSVCAGLLFCSWGCSSQVSDKPVTLETLLDEMVSVEEQALYPVPSYTCRQESSYDRASVSPDSAGWFANSDGFGIKRVDTVAGRIEKVMFDEVGPGAITRIWITTIDKRGTWRFYFDGSDQPGWIIPAYDLMRINVPGLGKGMLQAHTSYTPEGKGGNTLFLPIPYARGCKVTFEDEPGVNPTPKYYHINFRKYPEGTQVETFSKEVVERAAQKIAEVDNRLLQPVAGRKGEILREEKSILPSDSLVIPLPAGENAVYEVKFNIRIDNPEQYAQLMRELVFSAGFDGKQTVWVPLSDFSGGGMGAPKVDSWYLTSDGKGNISSRWLMPYQKDGVLKVLNLSSRSVAATMEVNVAPLKWNKDRSLYFYASWRQENGIYIHDKPEEADQCVEWNFATLKGRGVYKGDLLSLYNHAPLWYGEGDEKIWVDDDTFPSHFGTGTEDYYNSSWAPVVPFYTPFGGAPRADLESSHGYNAFYRTRHLDGIPFNKSFKFDIEMLGWKRGEADYATTIYWYGDPEAQVFGTSGIEEARRQLLPAVEASADLEHHHHHH”, “not failed”.
Consider “MDISSTEIWDAIRRNSFLLYYQPKVDAKTNELIGFEGLIRLKTATAILAPADFFEDIALLNATREMQDFVAETAIEQINQLGGRFSISINIPAHYVVSSNYMTFLYDYVKEHLKYPECLEIEIIERGEITELAVADKNLRKIKKLGVTVSMDDFGKGYSSLAYLRSLPIDIVKTDMSFIALLKTDRKQQIIIQAIVNLCHDLGGKVVTEGVEDIEQVKTLREMKVDYFQGYYFSRPLPMKEIKEKYSIV”, for which the protein production entry is listed as “failed”.
Consider “MDITNIKEMNYEEVFSITITVDKPILIGQDDIVGRRQLIPIISGKVSGNNFNGKVLPGGIDSQIVRPDGKCELSARYAIRLDDGAAIYIENNGIRTVPDEYIEAVKSGEFVDPNAYYFRTIPTFETYSPKYKWMMNHIFVCCASRLPENVLLKFYKIS”, for which the protein production result is “not failed”.
Regarding “MDIVISGGTGLIGRAITEIQGNTYNVITRGPSRTDGNINLVNWNDLRKIRHCDVVINLAGYNIGSKRWNPKIKEEIIRSRIESTRRMVEFISSLDSKPEAFLSGSAIGYYGYGENTVFDENSPPGTGFLAELANAWEDEALKASRYTRTVILRTSNVLSSSGGFLARIMNSRSRRVYYFGDGDQPVSWIHIKDYVNAVKFLMENKDISGPVNMAAPSPVSFADLAHAIAREKGYKEMKIPEFIGKLILGSEMYRELMSGQRVAPKKLTGSGFSFQYPDLESAIKNLLEHHHHHH”, the protein production result is reported as “failed”.
In the case of “MDIVLIGGLWLNGSVWEGVASTLESLGHRPVPLTLPGQGDGAATATLDDQVAAVLAAVDAAPGRPMVVGHSAACALAWLAADRRPGRLAKVALIGGIPTPDGRPYADFFEVRDGVMPFPGWEPFQGPDAADLDEAARHELAAAAIPVPEAVARGVVRLSDERRYDVPVVVVCPEFTPAQARGWIDAGDVPELARAKHVDFADIDSGHWPMITKPAELARVLAAAAEGN”, the protein production entry is on record as “failed”.
Turning to “MDIVSVALQRYSTKAFDPSKKLTAEEADKIKTLLQYSPSSTNSQPWHFIVASTEEGKARVAKSAAGNYTFNERKMLDASHVVVFCAKTAMDDAWLERVVDQEDADGRFATPEAKAANDKGRRFFADMHRVSLKDDHQWMAKQVYLNVGNFLLGVAAMGLDAVPIEGFDAEVLDAEFGLKEKGYTSLVVVPVGHHSVEDFNAGLPKSRLPLETTLTEV”, the protein production entry is given as “not failed”.
